Assay results published in patent US8273357B2, “Antigen-carbohydrate conjugates” (Massachusetts Institute of Technology, priority 2004, dated 2012).
Values joined by “and” are separate entries in the source; they are usually repeats but may differ in a detail not shown here. Equal values may be shown once. “Also recorded” adds a separate entry of the source.

B1: (OVA)-3-1: ovalbumin modified via SMCC with nonasaccharide 3-1, average of three saccharides per OVA (conjugate)
chain: GSIGAASMEFCFDVFKELKVHHANENIFYCPIAIMSALAMVYLGAKDSTRTQINKVVRFDKLPGFGDSIEAQCGTSVNVHSSLRDILNQITKPNDVYSFSLASRLYAEERYPILPEYLQCVKELYRGGLEPINFQTAADQARELINSWVESQTNGIIRNVLQPSSVDSQTAMVLVNAIVFKGLWEKAFKDEDTQAMPFRVTEQESKPVQMMYQIGLFRVASMASEKMKILELPFASGTMSMLVLLPDEVSGLEQLESIINFEKLTEWTSSNVMEERKIKVYLPRMKMEEKYNLTSVLMAMGITDVFSSSANLSGISSAESLKISQAVHAAHAEINEAGREVVGSAEAGVDAASVSEEFRADHPFLFCIKHIATNAVLFFGRCVSP
B2: ovalbumin (protein, UniProt P01012 2-386, looked up)
Ovalbumin: B1 chain
notes: model antigen, unmodified

Key:
[1] = tested on: CD11c+ dendritic cells / OTII T cells; assay: Antigen presentation assay, purified CD11c+ dendritic cells and purified OTII T cells; assay type: cell-based, mouse
Experimental: FIGS. 4A, 4B, 4C and 4D are graphs showing that CD11c^+ dendritic cells are the main antigen presenting cells presenting 3-1-targeted antigen. […] 1.5×10^4 Splenic CD11c^+ dendritic cells purified from C57BL/6 mice and 3.0×10^4 purified OTII T cells were incubated with OVA (starting concentration 300 μg mL^−1) or (OVA)-3-1 (starting concentration 25 μg mL^−1) in graded doses for eight-four hours with [^3H]thymidine (1 μCi) added for the last twelve hours. […] Purified CD11c^+ dendritic cells and OTII T cells were incubated with (OVA)-3-1 (25 μg mL^−1)±each potential inhibitor (100 μg mL^−1). T cell proliferation was determined as for FIG. 4A. […] CD11c^+ dendritic cells and OTII T cells were incubated with OVA or (OVA)-3-1±lipopolysaccharide ([…]). Also included are all ‘non-dendritic cells’ (macrophages and B cells) obtained during the purification of the dendritic cells. T cell proliferation was determined as described in FIG. 4A. […] Supernatants from cells described in FIG. 4C were collected at forty-eight and seventy-two hours and measured for IFN-γ by ELISA; the values presented are from the seventy-two hour time point. All measurements here were performed in triplicate.
To confirm that the increased T cell proliferation observed with (OVA)-3-1 was due to the selective uptake of this conjugate by dendritic cells and not B cells or macrophages, purified CD11c^+ dendritic cells were prepared from wild-type C57BL/6 mice and the OVA-specific T cells from transgenic OTII mice (see Materials & Methods). The in vitro antigen presentation assays described above were then repeated. […] By comparison, >50-fold more unmodified OVA was required to obtain similar levels of T cell proliferation. When B cells and macrophages were used as antigen-presenting cells in place of purified dendritic cells, the resulting T cell responses were negligible (FIG. 4C), providing strong confirmation that CD11c^+ dendritic cells are the main antigen-presenting cells mediating uptake and presentation of (OVA)-3-1 to OTII T cells.
Pooled inguinal lymph nodes were dissociated in 10% Fetal Bovine Serum RPMI (supplemented with 2 mM L-glutamine) and either mechanically dissociated between two glass slides or, to improve the overall cell yield, incubated in the presence of collagenase (Boehringer) and EDTA for 25 minutes at 37° C./5% CO2 to dissociate DC-T cell clusters. For antigen presentation assays with whole splenocytes, isolated spleens were injected with collagenase/EDTA, gently teased apart and incubated as described above. Splenocytes were cultured in 96-well round-bottom plates at a density of 3×10^5 cells/0.2 mL. In antigen presentation assays utilizing purified dendritic cells and T cells, dendritic cells were isolated from the spleens of C57BL/6 mice following collagenase/EDTA treatment by labeling the dendritic cells with commercially available magnetic microbeads linked to an anti-CD11c^+ antibody (Miltenyi Biotec, Bergisch Gladbach, Germany) (according to the Miltenyi Biotec protocol) and separating labeled Dendritic cells from non-dendritic cells by application of a magnetic field. Similarly, purified […] T cells were obtained from spleens of OTII transgenic mice using magnetic beads Dynal (Oslo, Norway). Purified dendritic cells and T cells were seeded onto 96-well plates round-bottom Plates at a 1:2 DC:T cell ratio unless stated otherwise in the Figures.

OTII T cells = assay: Adoptive transfer of CFSE-labeled OTII cells, immunization with CFA or mBSA, cell number and CFSE dilution; assay type: in vivo, mouse; settings: for T cells that had undergone cell division: antigen 50 ng ± mBSA 50 μg subcutaneous, CFSE
Experimental: FIGS. 7A and 7B are a series of dot plots showing that inflammatory stimuli dampen the effects of DC targeting by (OVA)-3-1. FIG. 7A includes two dot plots showing the 5-(6)-carboxyfluorescein diacetate succinimidyl ester (CFSE), a cell-permeable dye, intensity present in a population of cells. 2×10^7 CFSE-labeled OTII splenocytes were adoptively transferred to B6.Ly5.2/Cr recipients and the mice were immunized subcutaneously with OVA (200 ng) or (OVA)-3-1 (200 ng) emulsified in Complete Freund's Adjuvant. At seventy-two hours post immunization the draining inguinal lymph nodes were isolated and the expansion of CD45.2^+Vα2^+ was evaluated for CFSE dilution by flow cytometry. 4×10^5 total counts were collected. The plots display the CFSE intensity associated with the gated population of Vα2^+CD45.2^+ donor cells. The numbers indicate the percentage of CFSE high (undivided; R3 gate) and CFSE low (divided; R4 gate) OTII T cells. FIG. 7B is a series of five dot plots showing the enhancement in T cell proliferation promoted by neoglycoprotein mBSA. CFSE-labeled OTII splenocytes were adoptively transferred as in (A) and mice were immunized subcutaneously with mBSA (50 μg); OVA (50 ng); (OVA)-3-1 (50 ng); OVA (50 ng)+mBSA (50 μg) or (OVA)-3-1 (50 ng)+mBSA (50 μg). At 3 days the mice were sacrificed and isolated cells were analyzed as described in (A). Both FIGS. 7A and 7B are results from one of two separate experiments.
These cytokines aid in the recruitment and activation of monocytes and dendritic cells at the site of administration, thereby promoting a heightened immune response. […] Prior to transferring the CD45.2 OTII T cells to the B6.Ly5.2/Cr recipients, the cells were stained with 5-(6)-carboxyfluorescein diacetate succinimidyl ester (CFSE), a cell-permeable dye that freely crosses the cell membrane; once inside the cell, however, cellular esterases hydrolyze the CFSE's ester functional groups to generate a negatively charged molecule that cannot cross back across the cell membrane. This dye is used to monitor cell division by flow cytometry as each successive cell division leads to a dilution of CFSE among the daughter cells.
To administer pro-inflammatory stimuli at the same time as soluble antigen, OVA and (OVA)-3-1 were emulsified in Complete Freund's Adjuvant (CFA) prior to immunization. CFA is an oil-based mixture of mycobacterial cell wall components that is known to induce strong TH1 T cell responses^2. Seventy-two hours after immunization, cells from the draining lymph nodes were isolated and analyzed by flow cytometry for cell number and divisions (FIG. 7A). […] In fact, the enhancement previously observed relative to soluble OVA (FIG. 6B) was largely diminished. […] Without being tied to one particular theory, one potential reason for this observation could be that dendritic cells targeted with (OVA)-3-1 produced more peptide-MHC class II complexes than those targeted by OVA as receptor-mediated endocytosis delivered more antigen to the cell before full maturation was reached^10.
Since most lectins have weak affinities for monosaccharides, these experiments were repeated with BSA that was modified with approximately 25 mannose residues per protein molecule (mBSA). […] Mice that had received CFSE-labeled OTH T cells were immunized with mBSA, OVA, (OVA)-3-1, OVA plus mBSA, or (OVA)-3-1 plus mBSA and their T cell responses were analyzed at seventy-two hours (FIG. 7B). […]

[2] = purified CD11c+ dendritic cells and OTII T cells

Molecule	inhibitory effect on (OVA)-3-1 presentation by dendritic cells ([1]; (OVA)-3-1 25 μg mL^−1, inhibitor 100 μg mL^−1)	OTII T cell proliferation after immunization with mBSA alone (OTII T cells; mBSA 50 μg subcutaneous, 72 h)	capture and presentation by purified CD11c+ dendritic cells to OTII T cells compared to soluble OVA ([1]; parallel titration series)	decrease in presentation to OTII T cells as a result of TLR-mediated dendritic cell maturation ([1]; plus lipopolysaccharide (LPS))	presentation to T cells upon TLR-4 stimulation ([1]; plus lipopolysaccharide (LPS))	low concentration at which capture and presentation was still highly efficient [1, 2]	increase in OTII T cell number compared to OVA (OTII T cells; 50 ng subcutaneous, 72 h)	T cells that had undergone cell division (OTII T cells; 72 h)	enhancement of T cell activation / proliferation relative to OVA in saline (OTII T cells; in vivo immunization)	excess of unmodified OVA required to obtain levels of T cell proliferation similar to (OVA)-3-1 [1, 2]
mBSA: BSA modified with approximately 25 mannose residues per protein molecule [reference compound]	Neither mBSA nor Lewis^x-BSA were inhibitory	did not proliferate	–	–	–	–	–	–	–	–
B1	–	–	highly efficient; also recorded: efficiently present	60%	remained better than targeting by unmodified OVA; also recorded: significantly decreased	16 nM	2 fold	58% and 55%	2 fold	–
B2	–	–	–	30%	–	–	–	33%	–	> 50 fold
